Biological target: T1, HA-tagged PHLPP1 N-terminal extension (PHLPP1 NTE), residues 1-512 (UniProt O60346 1-512)
T1 construct: PH domain Leucine-rich repeat Protein Phosphatase 1 (PHLPP1), N-terminal extension, residues 1-512 of the 1717-residue protein; also called HA-NTE; pCDNA3 HA PHLPP1 NTE-WT; source: HEK-293T, transfected, in lysate; not shown: HA, N-terminal, kept
T1 sequence (looked up): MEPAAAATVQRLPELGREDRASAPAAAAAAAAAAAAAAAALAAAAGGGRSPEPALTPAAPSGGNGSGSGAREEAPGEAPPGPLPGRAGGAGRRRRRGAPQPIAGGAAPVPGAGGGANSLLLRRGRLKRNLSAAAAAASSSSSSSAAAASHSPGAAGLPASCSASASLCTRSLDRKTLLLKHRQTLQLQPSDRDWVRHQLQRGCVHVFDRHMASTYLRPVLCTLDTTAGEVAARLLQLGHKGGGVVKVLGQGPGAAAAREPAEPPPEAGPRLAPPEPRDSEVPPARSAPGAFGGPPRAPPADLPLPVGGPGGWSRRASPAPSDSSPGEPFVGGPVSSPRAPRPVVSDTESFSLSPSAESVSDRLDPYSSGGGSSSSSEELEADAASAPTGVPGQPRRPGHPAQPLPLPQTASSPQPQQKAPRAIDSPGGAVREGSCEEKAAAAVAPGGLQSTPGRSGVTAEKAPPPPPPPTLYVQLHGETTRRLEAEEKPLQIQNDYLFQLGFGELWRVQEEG
Experiment: co-IP; HEK-293T cells transfected with HA-tagged PHLPP1 constructs and GFP-STAT1; detergent-solubilized lysates incubated with anti-HA antibody at 4°C overnight, protein A/G agarose 1 hr at 4°C, washed three times in lysis buffer with 0.3 M NaCl and 0.1% Triton X 100; blot probed with GFP antibody; GFP-STAT1 IP divided by HA IP, normalized to HA-NTE IP, three independent experiments
Details: partners not purified

B1: GFP-STAT1 (natural protein, UniProt P42224 1-750, looked up)
chain: MSQWYELQQLDSKFLEQVHQLYDDSFPMEIRQYLAQWLEKQDWEHAANDVSFATIRFHDLLSQLDDQYSRFSLENNFLLQHNIRKSKRNLQDNFQEDPIQMSMIIYSCLKEERKILENAQRFNQAQSGNIQSTVMLDKQKELDSKVRNVKDKVMCIEHEIKSLEDLQDEYDFKCKTLQNREHETNGVAKSDQKQEQLLLKKMYLMLDNKRKEVVHKIIELLNVTELTQNALINDELVEWKRRQQSACIGGPPNACLDQLQNWFTIVAESLQQVRQQLKKLEELEQKYTYEHDPITKNKQVLWDRTFSLFQQLIQSSFVVERQPCMPTHPQRPLVLKTGVQFTVKLRLLVKLQELNYNLKVKVLFDKDVNERNTVKGFRKFNILGTHTKVMNMEESTNGSLAAEFRHLQLKEQKNAGTRTNEGPLIVTEELHSLSFETQLCQPGLVIDLETTSLPVVVISNVSQLPSGWASILWYNMLVAEPRNLSFFLTPPCARWAQLSEVLSWQFSSVTKRGLNVDQLNMLGEKLLGPNASPDGLIPWTRFCKENINDKNFPFWLWIESILELIKKHLLPLWNDGCIMGFISKERERALLKDQQPGTFLLRFSESSREGAITFTWVERSQNGGEPDFHAVEPYTKKELSAVTFPDIIRNYKVMAAENIPENPLKYLYPNIDKDHAFGKYYSRPKEAPEPMELDGPKGTGYIKTELISVSEVHPSRLQTTDNLLPMSPEEFDEVSRIVGSVEFDSMMNTV
notes: STAT1, detected in the co-IP by its GFP tag; the methods give no source or limits for it; source: HEK-293T, transfected, in lysate
  fold binding against PHLPP1 lacking the NTE: ~26 fold
  fold binding against full-length PHLPP1: ~5 fold

— PMC6692130, “PHLPP1 counter-regulates STAT1-mediated inflammatory signaling” (eLife, 2019)
